This data set deals with the molecule itself. As to the kind of experiment: negative stain electron microscopy.

B1: Drosophila P5CS, purified from E. coli (enzyme, UniProt Q9VNW6 1-776, looked up)
chain: MLQNSFKLAQSLRNGFYRNAWRAFSSHGPRQPLVSPERRLEKAHPTFTERSQLKYARRLVVKLGSAVITREDNHGLALGRLASIVEQVAECHLEGREVMMVTSGAVAFGKQKLAQELLMSLSMRETLNPKDSKEFDGATLEPRAAAAVGQSGLMSLYDAMFAQYGVKIAQVLVTKPDFYNEETRNNLFCTLSELISLNIVPIINTNDAVSPPMFIRDDEPAGGARRGIPIKDNDSLSAMLAAEVQADLLILMSDVDGIYNKPPWEDGAKLMHTYTSDDSNSIEFGKKSKVGTGGMDSKVKAATWALDRGVSVVICNGMQEKAIKTIIGGRKVGTFFTEATESANAVPVEVMAENARTGSRQMQALTPAQRASAVNTLADLLVSREKFILDANAKDLAEAQKSGLAKPLLSRLSLNPAKLKNLSVGLKQIAEDSHKNVGRVLRRTRLADQLELKQVTVPIGVLLVIFESRPDSLPQVAALAMASANGLLLKGGKEAAHSNKALMELVKEALATVGAEHAVSLVSTREEISDLLSMENHIDLIIPRGSSDLVRSIQQQSLHIPVLGHAEGVCHVYIDRDADLEKALRIARDAKCDYPAACNAMETLLIHEDLMSGAIFGDVCNMLKREGVKIYAGPRLNQQLTFGPPAAKSLKHEYGALECCIEVVPSLDEAINHIHTYGSSHTDVIVTENDAAARQFLGSVDSACVFHNASSRFADGFRFGLGAEVGISTARIHARGPVGVEGLLTTKWILEGQDHAAADFAEGGGRTWLHETLPLD
For B1, the binding result was “binds”.

For the origin of these results see article doi:10.1101/2019.12.11.872267 (bioRxiv, 2019).
